The values that follow come from publication PMC12316734, “Lipase Activation by Poly(Methyl Methacrylate) in Dispersed Solution: Mechanistic Insights by Fluorescence Spectroscopy” (Applied Biochemistry and Biotechnology, 2025).

Assay in all cases: fluorogenic hydrolysis assay, Michaelis-Menten fit
Common to all, as to conditions: pH 7, 20 °C, no PMMA, 2% DMSO, 500 nM enzyme

Substrate in data set [1]: CCCC(=O)Oc1ccc2c(C)cc(=O)oc2c1
Format: biochemical, Bacillus subtilis. From the text: fluorogenic hydrolysis assay, Michaelis-Menten fit on Bacillus subtilis lipase A (BSLA WT)

Substrate in data set [2]: CCCC(=O)Oc1ccc2c(C)cc(=O)oc2c1
The class given is biochemical, Moesziomyces antarcticus. The text has this: fluorogenic hydrolysis assay, Michaelis-Menten fit on Candida antarctica lipase B (CalB)

Substrate in data set [3]: CCCC(=O)Oc1ccc2c(C)cc(=O)oc2c1
The class given is biochemical, Thermomyces lanuginosus. From the text:
fluorogenic hydrolysis assay, Michaelis-Menten fit on Thermomyces lanuginosus lipase (TLL)

B1: Bacillus subtilis lipase A (BSLA WT) (Bacillus subtilis subsp. subtilis str. 168) (protein)
chain: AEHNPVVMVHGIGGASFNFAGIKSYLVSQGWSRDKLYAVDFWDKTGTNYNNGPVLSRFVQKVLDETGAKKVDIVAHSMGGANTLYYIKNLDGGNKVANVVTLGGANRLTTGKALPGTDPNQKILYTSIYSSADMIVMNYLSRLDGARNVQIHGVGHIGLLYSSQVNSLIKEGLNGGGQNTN
Turning to B1, in data set [1], the Km is recorded as 39.2 ± 3.61 µM, the maximum rate (Vmax) was determined as 97.7 µM/min and the Vmax/Km was 2.49 min⁻¹.

B2: Candida antarctica lipase B (CalB) (Moesziomyces antarcticus) (protein)
chain: LPSGSDPAFSQPKSVLDAGLTCQGASPSSVSKPILLVPGTGTTGPQSFDSNWIPLSTQLGYTPCWISPPPFMLNDTQVNTEYMVNAITALYAGSGNNKLPVLTWSQGGLVAQWGLTFFPSIRSKVDRLMAFAPDYKGTVLAGPLDALAVSAPSVWQQTTGSALTTALRNAGGLTQIVPTTNLYSATDEIVQPQVSNSPLDSSYLFNGKNVQAQAVCGPLFVIDHAGSLTSQFSYVVGRSALRSTTGQARSADYGITDCNPLPANDLTPEQKVAAAALLAPAAAAIVAGPKQNCEPDLMPYARPFAVGKRTCSGIVTP
notes: commercial lipase B (Strem Chemicals), free enzyme in solution
As for B2, in data set [2], the Km is reported as 26.6 ± 1.77 µM, the Vmax stood at 5.43 µM/min and the Vmax/Km was determined as 0.2 min⁻¹.

B3: Thermomyces lanuginosus lipase (TLL) (Thermomyces lanuginosus) (protein)
chain: EVSQDLFNQFNLFAQYSAAAYCGKNNDAPAGTNITCTGNACPEVEKADATFLYSFEDSGVGDVTGFLALDNTNKLIVLSFRGSRSIENWIGNLNFDLKEINDICSGCRGHDGFTSSWRSVADTLRQKVEDAVREHPDYRVVFTGHSLGGALATVAGADLRGNGYDIDVFSYGAPRVGNRAFAEFLTVQTGGTLYRITHTNDIVPRLPPREFGYSHSSPEYWIKSGTLVPVTRNDIVKIEGIDATGGNNQPNIPDIPAHLWYFGLIGTCL
notes: commercial lipase (gift of ASA Spezialenzyme), desalted; predominantly dimer in FCS
Regarding B3, in data set [3], the Michaelis-Menten constant (Km) amounted to 20.8 ± 1.67 µM, the Vmax was 4.16 µM/min and the Vmax/Km stood at 0.2 min⁻¹.
